B1: AtGORK^623 (residues 1 to 623) (domain or fragment, Arabidopsis thaliana, UniProt Q94A76 1-623, looked up)
chain: MGRLRRRQEIIDHEEEESNDDVSSRRGKLSLAETFRWLDSSEHRRIETDGHNDYKYIIHPKNRWYKAWEMFILVWAIYSSLFTPMEFGFFRGLPERLFVLDIVGQIAFLVDIVLQFFVAYRDTQTYRTVYKPTRIAFRYLKSHFLMDFIGCFPWDLIYKASGKHELVRYLLWIRLFRVRKVVEFFQRLEKDTRINYLFTRILKLLFVEVYCTHTAACIFYYLATTLPPENEGYTWIGSLKLGDYSYENFREIDLWKRYTTALYFAIVTMATVGYGDIHAVNLREMIFVMIYVSFDMVLGAYLIGNITALIVKGSNTERFRDKMNDLISFMNRKKLGRDLRSQITGHVRLQYDSHYTDTVMLQDIPASIRAKIAQLLYLPYIKKVPLFKGCSTEFINQIVIRLHEEYFLPGEVITEQGNVVDHLYFVCEGLLEALVTKTDGSEESVTLLGPHTSFGDISIICNISQPFTVRVCELCHLLRLDKQSFSNILEIYFHDGRTILNNIMEEKESNDRIKKLESDIVIHIGKQEAELALKVNSAAFQGDFYQLKSLIRSGADPNKTDYDGRSPLHLAACRGYEDITLFLIQEGVDVNLKDKFGHTPLFEAVKAGQEGVIGLLVKEGASF
B2: AtGORK^510 (residues 1 to 510) (domain or fragment, Arabidopsis thaliana, UniProt Q94A76 1-510, looked up)
chain: MGRLRRRQEIIDHEEEESNDDVSSRRGKLSLAETFRWLDSSEHRRIETDGHNDYKYIIHPKNRWYKAWEMFILVWAIYSSLFTPMEFGFFRGLPERLFVLDIVGQIAFLVDIVLQFFVAYRDTQTYRTVYKPTRIAFRYLKSHFLMDFIGCFPWDLIYKASGKHELVRYLLWIRLFRVRKVVEFFQRLEKDTRINYLFTRILKLLFVEVYCTHTAACIFYYLATTLPPENEGYTWIGSLKLGDYSYENFREIDLWKRYTTALYFAIVTMATVGYGDIHAVNLREMIFVMIYVSFDMVLGAYLIGNITALIVKGSNTERFRDKMNDLISFMNRKKLGRDLRSQITGHVRLQYDSHYTDTVMLQDIPASIRAKIAQLLYLPYIKKVPLFKGCSTEFINQIVIRLHEEYFLPGEVITEQGNVVDHLYFVCEGLLEALVTKTDGSEESVTLLGPHTSFGDISIICNISQPFTVRVCELCHLLRLDKQSFSNILEIYFHDGRTILNNIMEEKESN
B3: full-length Arabidopsis GORK (AtGORK^FL, residues 1 to 820) (natural protein, Arabidopsis thaliana, UniProt Q94A76 1-820, looked up)
chain: MGRLRRRQEIIDHEEEESNDDVSSRRGKLSLAETFRWLDSSEHRRIETDGHNDYKYIIHPKNRWYKAWEMFILVWAIYSSLFTPMEFGFFRGLPERLFVLDIVGQIAFLVDIVLQFFVAYRDTQTYRTVYKPTRIAFRYLKSHFLMDFIGCFPWDLIYKASGKHELVRYLLWIRLFRVRKVVEFFQRLEKDTRINYLFTRILKLLFVEVYCTHTAACIFYYLATTLPPENEGYTWIGSLKLGDYSYENFREIDLWKRYTTALYFAIVTMATVGYGDIHAVNLREMIFVMIYVSFDMVLGAYLIGNITALIVKGSNTERFRDKMNDLISFMNRKKLGRDLRSQITGHVRLQYDSHYTDTVMLQDIPASIRAKIAQLLYLPYIKKVPLFKGCSTEFINQIVIRLHEEYFLPGEVITEQGNVVDHLYFVCEGLLEALVTKTDGSEESVTLLGPHTSFGDISIICNISQPFTVRVCELCHLLRLDKQSFSNILEIYFHDGRTILNNIMEEKESNDRIKKLESDIVIHIGKQEAELALKVNSAAFQGDFYQLKSLIRSGADPNKTDYDGRSPLHLAACRGYEDITLFLIQEGVDVNLKDKFGHTPLFEAVKAGQEGVIGLLVKEGASFNLEDSGNFLCTTVAKGDSDFLKRLLSSGMNPNSEDYDHRTPLHVAASEGLFLMAKMLVEAGASVISKDRWGNSPLDEARLCGNKKLIKLLEDVKNAQSSIYPSSLRELQEERIERRKCTVFPFHPQEAKEERSRKHGVVVWIPSNLEKLIVTAAKELGLSDGASFVLLSEDQGRITDIDMISDGHKLYMISDTTDQT

Molecular target: the molecule itself
Assay: cryo-EM structure

Protein	stoichiometry N
B1	4
B2	4
B3	4

— article doi:10.1101/2024.12.17.628833 (bioRxiv, 2024)
